Experimental data: patent US9988424 (DUKE UNIVERSITY, dated 2018)

B1: PG16 (antibody, V domains shown)
VH: QEQLVESGGGVVQPGGSLRLSCLASGFTFHKYGMHWVRQAPGKGLEWVALISDDGMRKYHSDSMWGRVTISRDNSKNTLYLQFSSLKVEDTAMFFCAREAGGPIWHDDVKYYDFNDGYYNYHYMDVWGKGTTVTVSS
VL: QSALTQPASVSGSPGQTITISCNGTSSDVGGFDSVSWYQQSPGKAPKVMVFDVSHRPSGISNRFSGSKSGNTASLTISGLHIEDEGDYFCSSLTDRSHRIFGGGTKVTVL
notes: also called mAb PG16; bnAb PG16
B2: CH58 reverted unmutated ancestor antibody (antibody, V domains shown)
VH: EVQLVQSGAEVKKPGESLKISCKGSGYSFTSYWIGWVRQMPGKGLEWMGIIYPGDSDTRYSPSFQGQVTISADKSISTAYLQWSSLKASDTAMYYCARLGGRYYYDSSGYYYFDYWGQGTLVTVSS
VL: NFMLTQPHSVSESPGKTVTISCTRSSGSIASNYVQWYQQRPGSSPTTVIYEDNQRPSGVPDRFSGSIDSSSNSASLTISGLKTEDEADYYCQSYDSSSWVFGGGTKLTVL
notes: also called CH58 RUA; CH58_RUA

Columns and labels:
[1] = molecular target: T1, A.9004SS V1/V2 tags; experiment: ELISA, OD405 at 10 ug/ml
T1 V1V2 tags construct: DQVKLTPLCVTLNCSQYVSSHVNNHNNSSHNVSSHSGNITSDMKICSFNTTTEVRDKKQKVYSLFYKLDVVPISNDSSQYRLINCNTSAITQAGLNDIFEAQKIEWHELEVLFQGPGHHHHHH

[2] = molecular target: B.040 gp140C; experiment: ELISA, OD405 at 10 ug/ml
[3] = molecular target: T2, B.62357 gp140C; experiment: ELISA, OD405 at 10 ug/ml
T2 construct: also called B.62357 140C

[4] = molecular target: B.con gp140CF; experiment: ELISA, OD405 at 10 ug/ml
[5] = molecular target: J08 A.92RW020V1V2 (HIV-1); experiment: ELISA, OD405 at 10 ug/ml
[6] = molecular target: T3, gp70 B.CaseA2 V1/V2 (HIV-1 V1V2 on murine leukemia virus gp70); experiment: ELISA, OD405 at 10 ug/ml
T3 construct: also called B.gp70CaseA2 V1/V2; gp70 B.CaseAV1V2
T3 chain: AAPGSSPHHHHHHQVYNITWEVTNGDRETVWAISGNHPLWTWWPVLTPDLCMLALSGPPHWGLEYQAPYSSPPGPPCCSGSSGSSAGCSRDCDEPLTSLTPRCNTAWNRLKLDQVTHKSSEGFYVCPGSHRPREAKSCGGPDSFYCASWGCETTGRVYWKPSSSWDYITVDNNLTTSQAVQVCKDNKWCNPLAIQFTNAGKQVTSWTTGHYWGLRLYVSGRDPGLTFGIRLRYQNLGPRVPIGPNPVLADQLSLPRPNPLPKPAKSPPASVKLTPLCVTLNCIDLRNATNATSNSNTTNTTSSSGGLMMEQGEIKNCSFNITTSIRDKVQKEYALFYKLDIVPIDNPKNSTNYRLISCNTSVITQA

[7] = molecular target: T4, J08 B.HXB2/BALV1V2 (HIV-1); experiment: ELISA, OD405 at 10 ug/ml
T4 construct: also called J08 B.HXB/BAL V1V2
T4 chain: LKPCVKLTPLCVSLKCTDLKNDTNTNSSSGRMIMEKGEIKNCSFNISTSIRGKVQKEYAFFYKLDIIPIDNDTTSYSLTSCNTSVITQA

[8] = molecular target: C.1086 V1V2 Tags (HIV-1); experiment: ELISA, OD405 at 10 ug/ml
[9] = molecular target: T5, gp70 C.1086 V1/V2 (HIV-1 V1V2 on murine leukemia virus gp70); experiment: ELISA, OD405 at 10 ug/ml
T5 construct: also called C.gp70 1086C V1V2; C.1086gp70V1V2
T5 chain: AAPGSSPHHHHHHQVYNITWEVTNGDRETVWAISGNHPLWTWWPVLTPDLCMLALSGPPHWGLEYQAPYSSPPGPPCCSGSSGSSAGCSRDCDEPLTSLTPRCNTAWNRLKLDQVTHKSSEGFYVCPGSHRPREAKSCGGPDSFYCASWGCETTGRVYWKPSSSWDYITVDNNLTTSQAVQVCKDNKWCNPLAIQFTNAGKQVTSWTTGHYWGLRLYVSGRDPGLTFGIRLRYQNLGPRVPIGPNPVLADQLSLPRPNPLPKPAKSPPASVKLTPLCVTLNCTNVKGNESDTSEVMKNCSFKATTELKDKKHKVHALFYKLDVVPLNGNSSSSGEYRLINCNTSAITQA

[10] = molecular target: T6, B.HXB/BAL gp140CFI (HIV-1, UniProt P04578 33-680); experiment: ELISA, OD405 at 10 ug/ml
T6 construct: also called B.HxB/Ba gp140 CFI

[11] = molecular target: B.9021 gp140C (HIV-1); experiment: ELISA, OD405 at 10 ug/ml
[12] = molecular target: T7, SIV CPZ US-1 gp140CF (SIVcpz); experiment: ELISA, OD405 at 10 ug/ml
T7 construct: also called US-1 SIVCPZ gp140CF
T7 chain: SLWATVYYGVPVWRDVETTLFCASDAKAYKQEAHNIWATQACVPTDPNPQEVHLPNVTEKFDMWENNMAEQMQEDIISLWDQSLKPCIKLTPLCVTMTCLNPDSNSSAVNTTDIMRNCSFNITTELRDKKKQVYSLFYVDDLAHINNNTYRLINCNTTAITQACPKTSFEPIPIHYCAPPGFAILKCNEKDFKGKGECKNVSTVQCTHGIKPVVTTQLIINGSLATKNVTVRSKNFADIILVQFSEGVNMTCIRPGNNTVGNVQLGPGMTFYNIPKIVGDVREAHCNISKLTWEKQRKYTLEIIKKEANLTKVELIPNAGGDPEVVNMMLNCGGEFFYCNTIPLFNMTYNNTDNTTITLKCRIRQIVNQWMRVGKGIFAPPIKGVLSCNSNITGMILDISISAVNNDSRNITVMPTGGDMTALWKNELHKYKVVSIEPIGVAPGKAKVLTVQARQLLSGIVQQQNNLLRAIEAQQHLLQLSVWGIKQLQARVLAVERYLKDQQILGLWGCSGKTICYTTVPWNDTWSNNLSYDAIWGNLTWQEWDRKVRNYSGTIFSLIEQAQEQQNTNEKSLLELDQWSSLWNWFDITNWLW

[13] = molecular target: T8, Con 6 120; experiment: ELISA OD405nm, bar chart, antibody concentration not given
T8 construct: also called Con 6 gp120

[14] = molecular target: T9, B.con env03 140CF; experiment: as above
T9 construct: also called B.con gp140CF

[15] = molecular target: T10, AE.con env03 40CF; experiment: as above
T10 construct: also called AE.con gp140CF; AE.con.env03 gp140CF

[16] = molecular target: T11, B.62357 140C; experiment: as above
T11 construct: also called B.62357 gp140C

[17] = molecular target: B.040 gp140C; experiment: as above
[18] = molecular target: T7, SIV CPZ US-1 gp140CF; experiment: as above

Binder | binding result [1] | binding result [2] | binding result [3] | binding result [4] | binding result [5] | binding result [6] | binding result [7] | binding result [8] | binding result [9] | binding result [10] | binding result [11] | binding result [12] | binding result [13] | binding result [14] | binding result [15] | binding result [16] | binding result [17] | binding result [18]
B1 | no binding (tested: 10 ug/ml) | no binding (tested: 10 ug/ml) | no binding (tested: 10 ug/ml) | no binding (tested: 10 ug/ml) | no binding (tested: 10 ug/ml) | no binding (tested: 10 ug/ml) | no binding (tested: 10 ug/ml) | no binding (tested: 10 ug/ml) | no binding (tested: 10 ug/ml) | no binding (tested: 10 ug/ml) | no binding (tested: 10 ug/ml) | no binding (tested: 10 ug/ml) | – | – | – | – | – | –
B2 | – | – | – | – | – | – | – | – | – | – | – | – | no binding (tested: not given) | no binding (tested: not given) | no binding (tested: not given) | no binding (tested: not given) | no binding (tested: not given) | no binding (tested: not given)
